Source: patent publication US20190015483A1 (CSL BEHRING RECOMBINANT FACILITY, published 2019)

T1: recombinant Factor VIII (CSL627, rVIII-SingleChain) (Homo sapiens (Human), UniProt P00451 20-2351)
T1 construct: also called FVIII
T1 sequence: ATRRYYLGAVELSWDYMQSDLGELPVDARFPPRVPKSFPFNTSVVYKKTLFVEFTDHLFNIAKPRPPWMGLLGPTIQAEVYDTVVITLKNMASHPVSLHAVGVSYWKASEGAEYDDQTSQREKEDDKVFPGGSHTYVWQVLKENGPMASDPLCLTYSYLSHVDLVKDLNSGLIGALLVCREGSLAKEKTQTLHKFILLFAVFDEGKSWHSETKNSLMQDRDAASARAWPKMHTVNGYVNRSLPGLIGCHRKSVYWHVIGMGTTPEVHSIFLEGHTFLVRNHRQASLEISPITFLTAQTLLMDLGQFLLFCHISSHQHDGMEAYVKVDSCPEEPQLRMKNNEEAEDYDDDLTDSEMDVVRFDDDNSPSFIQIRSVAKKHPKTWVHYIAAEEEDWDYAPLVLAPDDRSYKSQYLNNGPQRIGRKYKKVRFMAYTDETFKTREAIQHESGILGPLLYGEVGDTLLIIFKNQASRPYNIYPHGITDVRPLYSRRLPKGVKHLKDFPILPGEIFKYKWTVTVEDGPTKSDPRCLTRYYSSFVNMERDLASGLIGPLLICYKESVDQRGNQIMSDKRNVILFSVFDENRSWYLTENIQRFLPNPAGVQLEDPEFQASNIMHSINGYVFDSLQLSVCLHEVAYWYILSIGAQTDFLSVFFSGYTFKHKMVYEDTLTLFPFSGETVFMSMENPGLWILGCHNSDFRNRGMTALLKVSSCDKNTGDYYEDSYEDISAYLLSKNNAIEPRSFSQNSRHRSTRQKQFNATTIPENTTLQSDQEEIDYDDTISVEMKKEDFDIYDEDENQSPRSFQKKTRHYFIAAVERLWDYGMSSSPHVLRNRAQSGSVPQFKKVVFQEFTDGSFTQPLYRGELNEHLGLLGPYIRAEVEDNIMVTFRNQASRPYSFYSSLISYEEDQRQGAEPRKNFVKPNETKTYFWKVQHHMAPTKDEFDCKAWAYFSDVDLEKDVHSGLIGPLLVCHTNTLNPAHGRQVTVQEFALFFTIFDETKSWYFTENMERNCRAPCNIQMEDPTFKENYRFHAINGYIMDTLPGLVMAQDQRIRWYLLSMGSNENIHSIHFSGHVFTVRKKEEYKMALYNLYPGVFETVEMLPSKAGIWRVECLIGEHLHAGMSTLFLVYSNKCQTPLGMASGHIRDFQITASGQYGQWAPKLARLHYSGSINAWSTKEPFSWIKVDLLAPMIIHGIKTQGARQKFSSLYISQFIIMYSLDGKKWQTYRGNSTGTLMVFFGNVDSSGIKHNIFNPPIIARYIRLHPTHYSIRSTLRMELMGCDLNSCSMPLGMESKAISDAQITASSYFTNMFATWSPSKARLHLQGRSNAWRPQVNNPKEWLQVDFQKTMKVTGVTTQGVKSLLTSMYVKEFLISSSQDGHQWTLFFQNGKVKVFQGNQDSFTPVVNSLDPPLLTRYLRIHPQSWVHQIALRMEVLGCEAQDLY


molecular target: T1, recombinant Factor VIII (CSL627, …); assay: SPR, anti-His capture, FVIII injected, 37 C
Procedure, shortened: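 Capture 40-150 RU mutant from medium on anti-His (14,000 RU) CM-5; 1 nM FVIII, 5 min on / 5 min off; reference spot + blank subtracted; 1:1 fit.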

Binder	Kd	koff	kon	binding result
Hu-vWF[764-1270]-8His S766Y-P769E (other) SLYCREPMVKLVCPADNLRAEGLECTKTCQNYDLECMSMGCVSGCLCPPGMVRHENRCVALERCPCFHQGKEYAPGETVKIGCNTCVCRDRKWNCTDHVCDATCSTIGMAHYLTFDGLKYLFPGECQYVLVQDYCGSNPGTFRILVGNKGCSHPSVKCKKRVTILVEGGEIELFDGEVNVKRPMKDETHFEVVESGRYIILLLGKALSVVWDRHLSISVVLKQTYQEKVCGLCGNFDGIQNNDLTSSNLQVEEDPVDFGNSWKVSSQCADTRKVPLDSSPATCHNNIMKQTMVDSSCRILTSDVFQDCNKLVDPEPYLDVCIYDTCSCESIGDCACFCDTIAAYAHVCAQHGKVVTWRTATLCPQSCEERNLRENGYECEWRYNSCAPACQVTCQHPEPLACPVQCVEGCHAHCPPGKILDELLQTCVDPEDCPVCEVAGRRFASGKKVTLNPSDPEHCQICHCDVVNLTCEACQEPGGLVVPPTDAPVSPTTLYVEDISEPPLHDFHHHHHHHH	0.0936 nM	0.000414 s⁻¹	4.42e+06 M⁻¹ s⁻¹	–
Hu-vWF[764-1270]-8His S766Y-P769F (other) SLYCRFPMVKLVCPADNLRAEGLECTKTCQNYDLECMSMGCVSGCLCPPGMVRHENRCVALERCPCFHQGKEYAPGETVKIGCNTCVCRDRKWNCTDHVCDATCSTIGMAHYLTFDGLKYLFPGECQYVLVQDYCGSNPGTFRILVGNKGCSHPSVKCKKRVTILVEGGEIELFDGEVNVKRPMKDETHFEVVESGRYIILLLGKALSVVWDRHLSISVVLKQTYQEKVCGLCGNFDGIQNNDLTSSNLQVEEDPVDFGNSWKVSSQCADTRKVPLDSSPATCHNNIMKQTMVDSSCRILTSDVFQDCNKLVDPEPYLDVCIYDTCSCESIGDCACFCDTIAAYAHVCAQHGKVVTWRTATLCPQSCEERNLRENGYECEWRYNSCAPACQVTCQHPEPLACPVQCVEGCHAHCPPGKILDELLQTCVDPEDCPVCEVAGRRFASGKKVTLNPSDPEHCQICHCDVVNLTCEACQEPGGLVVPPTDAPVSPTTLYVEDISEPPLHDFHHHHHHHH	0.0772 nM	0.000427 s⁻¹	5.54e+06 M⁻¹ s⁻¹	–
Hu-vWF[764-1270]-8His S766Y-P769G (other) SLYCRGPMVKLVCPADNLRAEGLECTKTCQNYDLECMSMGCVSGCLCPPGMVRHENRCVALERCPCFHQGKEYAPGETVKIGCNTCVCRDRKWNCTDHVCDATCSTIGMAHYLTFDGLKYLFPGECQYVLVQDYCGSNPGTFRILVGNKGCSHPSVKCKKRVTILVEGGEIELFDGEVNVKRPMKDETHFEVVESGRYIILLLGKALSVVWDRHLSISVVLKQTYQEKVCGLCGNFDGIQNNDLTSSNLQVEEDPVDFGNSWKVSSQCADTRKVPLDSSPATCHNNIMKQTMVDSSCRILTSDVFQDCNKLVDPEPYLDVCIYDTCSCESIGDCACFCDTIAAYAHVCAQHGKVVTWRTATLCPQSCEERNLRENGYECEWRYNSCAPACQVTCQHPEPLACPVQCVEGCHAHCPPGKILDELLQTCVDPEDCPVCEVAGRRFASGKKVTLNPSDPEHCQICHCDVVNLTCEACQEPGGLVVPPTDAPVSPTTLYVEDISEPPLHDFHHHHHHHH	0.212 nM	0.000783 s⁻¹	3.7e+06 M⁻¹ s⁻¹	–
Hu-vWF[764-1270]-8His S766Y-P769H (other) SLYCRHPMVKLVCPADNLRAEGLECTKTCQNYDLECMSMGCVSGCLCPPGMVRHENRCVALERCPCFHQGKEYAPGETVKIGCNTCVCRDRKWNCTDHVCDATCSTIGMAHYLTFDGLKYLFPGECQYVLVQDYCGSNPGTFRILVGNKGCSHPSVKCKKRVTILVEGGEIELFDGEVNVKRPMKDETHFEVVESGRYIILLLGKALSVVWDRHLSISVVLKQTYQEKVCGLCGNFDGIQNNDLTSSNLQVEEDPVDFGNSWKVSSQCADTRKVPLDSSPATCHNNIMKQTMVDSSCRILTSDVFQDCNKLVDPEPYLDVCIYDTCSCESIGDCACFCDTIAAYAHVCAQHGKVVTWRTATLCPQSCEERNLRENGYECEWRYNSCAPACQVTCQHPEPLACPVQCVEGCHAHCPPGKILDELLQTCVDPEDCPVCEVAGRRFASGKKVTLNPSDPEHCQICHCDVVNLTCEACQEPGGLVVPPTDAPVSPTTLYVEDISEPPLHDFHHHHHHHH	0.0809 nM	0.000417 s⁻¹	5.16e+06 M⁻¹ s⁻¹	–

Now from value to binder:

Kd	koff	kon	binding result	Binder
0.108 nM	0.000511 s⁻¹	4.75e+06 M⁻¹ s⁻¹	–	Hu-vWF[764-1270]-8His S766Y-P769M (other) SLYCRMPMVKLVCPADNLRAEGLECTKTCQNYDLECMSMGCVSGCLCPPGMVRHENRCVALERCPCFHQGKEYAPGETVKIGCNTCVCRDRKWNCTDHVCDATCSTIGMAHYLTFDGLKYLFPGECQYVLVQDYCGSNPGTFRILVGNKGCSHPSVKCKKRVTILVEGGEIELFDGEVNVKRPMKDETHFEVVESGRYIILLLGKALSVVWDRHLSISVVLKQTYQEKVCGLCGNFDGIQNNDLTSSNLQVEEDPVDFGNSWKVSSQCADTRKVPLDSSPATCHNNIMKQTMVDSSCRILTSDVFQDCNKLVDPEPYLDVCIYDTCSCESIGDCACFCDTIAAYAHVCAQHGKVVTWRTATLCPQSCEERNLRENGYECEWRYNSCAPACQVTCQHPEPLACPVQCVEGCHAHCPPGKILDELLQTCVDPEDCPVCEVAGRRFASGKKVTLNPSDPEHCQICHCDVVNLTCEACQEPGGLVVPPTDAPVSPTTLYVEDISEPPLHDFHHHHHHHH
–	–	–	no binding	Hu-vWF[764-1270]-8His S766Y-P769I (other) SLYCRIPMVKLVCPADNLRAEGLECTKTCQNYDLECMSMGCVSGCLCPPGMVRHENRCVALERCPCFHQGKEYAPGETVKIGCNTCVCRDRKWNCTDHVCDATCSTIGMAHYLTFDGLKYLFPGECQYVLVQDYCGSNPGTFRILVGNKGCSHPSVKCKKRVTILVEGGEIELFDGEVNVKRPMKDETHFEVVESGRYIILLLGKALSVVWDRHLSISVVLKQTYQEKVCGLCGNFDGIQNNDLTSSNLQVEEDPVDFGNSWKVSSQCADTRKVPLDSSPATCHNNIMKQTMVDSSCRILTSDVFQDCNKLVDPEPYLDVCIYDTCSCESIGDCACFCDTIAAYAHVCAQHGKVVTWRTATLCPQSCEERNLRENGYECEWRYNSCAPACQVTCQHPEPLACPVQCVEGCHAHCPPGKILDELLQTCVDPEDCPVCEVAGRRFASGKKVTLNPSDPEHCQICHCDVVNLTCEACQEPGGLVVPPTDAPVSPTTLYVEDISEPPLHDFHHHHHHHH
0.0607 nM	0.000383 s⁻¹	6.31e+06 M⁻¹ s⁻¹	–	Hu-vWF[764-1270]-8His S766Y-P769K (other) SLYCRKPMVKLVCPADNLRAEGLECTKTCQNYDLECMSMGCVSGCLCPPGMVRHENRCVALERCPCFHQGKEYAPGETVKIGCNTCVCRDRKWNCTDHVCDATCSTIGMAHYLTFDGLKYLFPGECQYVLVQDYCGSNPGTFRILVGNKGCSHPSVKCKKRVTILVEGGEIELFDGEVNVKRPMKDETHFEVVESGRYIILLLGKALSVVWDRHLSISVVLKQTYQEKVCGLCGNFDGIQNNDLTSSNLQVEEDPVDFGNSWKVSSQCADTRKVPLDSSPATCHNNIMKQTMVDSSCRILTSDVFQDCNKLVDPEPYLDVCIYDTCSCESIGDCACFCDTIAAYAHVCAQHGKVVTWRTATLCPQSCEERNLRENGYECEWRYNSCAPACQVTCQHPEPLACPVQCVEGCHAHCPPGKILDELLQTCVDPEDCPVCEVAGRRFASGKKVTLNPSDPEHCQICHCDVVNLTCEACQEPGGLVVPPTDAPVSPTTLYVEDISEPPLHDFHHHHHHHH
0.0917 nM	0.00059 s⁻¹	6.44e+06 M⁻¹ s⁻¹	–	Hu-vWF[764-1270]-8His S766Y-P769L (other) SLYCRLPMVKLVCPADNLRAEGLECTKTCQNYDLECMSMGCVSGCLCPPGMVRHENRCVALERCPCFHQGKEYAPGETVKIGCNTCVCRDRKWNCTDHVCDATCSTIGMAHYLTFDGLKYLFPGECQYVLVQDYCGSNPGTFRILVGNKGCSHPSVKCKKRVTILVEGGEIELFDGEVNVKRPMKDETHFEVVESGRYIILLLGKALSVVWDRHLSISVVLKQTYQEKVCGLCGNFDGIQNNDLTSSNLQVEEDPVDFGNSWKVSSQCADTRKVPLDSSPATCHNNIMKQTMVDSSCRILTSDVFQDCNKLVDPEPYLDVCIYDTCSCESIGDCACFCDTIAAYAHVCAQHGKVVTWRTATLCPQSCEERNLRENGYECEWRYNSCAPACQVTCQHPEPLACPVQCVEGCHAHCPPGKILDELLQTCVDPEDCPVCEVAGRRFASGKKVTLNPSDPEHCQICHCDVVNLTCEACQEPGGLVVPPTDAPVSPTTLYVEDISEPPLHDFHHHHHHHH
